Where a chain is given by its changes, count along the chain named.

B1: VLR-Fc-46 (Fc fusion)
chain: ACPSQCSCSGTTVDCSGKSLASVPTGIPTTTRWLHLHRNQLTKLEPGVFDSLTQLTYLNLGGNQLTALPVGVFDKLTNLKELKLYSNQLQALSEGLFDRLGKLQHLDLSKNQLKSIPHGAFDRLSSLTHAYLFGNPWDCECRDIMYLRNWVADHTSIVMRWDGKAVNDPDSAKCAGTNTPVRAVTEASTSPSKCPGYVAT
notes: Dimeric recombinant VLR-rabbit IgG-Fc fusion secreted from HEK293F cells; also called VLR 46; VLR46; not shown: rabbit IgG-Fc from vector pIRES-VLR-Fc, C-terminal of the VLR
B2: VLR-Fc-11 (Fc fusion)
chain: B1 chain with T12E, D14R, S16E, G17S, K18R, T25A, W33R
notes: Dimeric recombinant VLR-rabbit IgG-Fc fusion secreted from HEK293F cells; also called VLR 11; VLR11; not shown: rabbit IgG-Fc from vector pIRES-VLR-Fc, C-terminal of the VLR
B3: VLR-Fc-30 (Fc fusion)
chain: B1 chain with R32Q, W33I, H35R, H37Y, L41I
notes: Dimeric recombinant VLR-rabbit IgG-Fc fusion secreted from HEK293F cells; also called VLR 30; VLR30; not shown: rabbit IgG-Fc from vector pIRES-VLR-Fc, C-terminal of the VLR

T1 sequence (Q62351 89-763 limits assumed): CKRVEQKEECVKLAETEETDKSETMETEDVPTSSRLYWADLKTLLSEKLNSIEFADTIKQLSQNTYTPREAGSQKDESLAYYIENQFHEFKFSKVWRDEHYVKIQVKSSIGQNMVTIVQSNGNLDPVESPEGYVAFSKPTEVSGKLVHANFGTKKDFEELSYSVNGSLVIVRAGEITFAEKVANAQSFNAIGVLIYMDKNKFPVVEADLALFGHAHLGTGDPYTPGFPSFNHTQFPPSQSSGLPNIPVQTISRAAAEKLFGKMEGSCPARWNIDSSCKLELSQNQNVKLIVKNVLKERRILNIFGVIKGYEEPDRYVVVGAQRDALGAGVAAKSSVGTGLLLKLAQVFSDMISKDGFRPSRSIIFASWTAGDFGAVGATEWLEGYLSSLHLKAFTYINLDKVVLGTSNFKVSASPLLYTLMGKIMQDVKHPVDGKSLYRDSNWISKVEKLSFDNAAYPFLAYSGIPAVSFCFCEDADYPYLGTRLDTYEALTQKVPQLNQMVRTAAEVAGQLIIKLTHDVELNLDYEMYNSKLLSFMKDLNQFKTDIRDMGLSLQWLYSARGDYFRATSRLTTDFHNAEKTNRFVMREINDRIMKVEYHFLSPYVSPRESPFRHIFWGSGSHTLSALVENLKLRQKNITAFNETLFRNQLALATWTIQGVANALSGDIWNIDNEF

One test has as its target T1, recombinant transferrin receptor ectodomain (UniProt Q62351 89-763, limits assumed).
T1 construct: extracellular domain; Bought; also called rTfR; TfR
Put plainly: competition of live bEnd.3 (MBEC) cell surface binding by excess recombinant receptor ectodomain. Here is the method:
(§1) Competition assay. 2 μM recombinant receptor ecto-domain proteins, rIR (R&D systems, 7544-MR), rLDLR (R&D systems, 2255-LD), and rTfR (Sino Biologics, 50741-M07H) were incubated with 200 nM VLR-Fc proteins in serum-free complete growth media for 30 minutes and then applied to serum-starved bEnd.3 cells in 96-well plates to allow for VLR-Fc binding to cell surface receptors. Plates were incubated at 4° C. for 2 hours. After extensive washing with ice cold PBS cells were fixed with 2% PFA, permeabilized, labeled with IRDye reagents, and analyzed as described above.
Consider B1, for which the binding result is “no binding (tested: 2 µM receptor ectodomain, 200 nM VLR-Fc)”.

For the molecule B2, the binding result was “no binding (tested: 2 µM receptor ectodomain, 200 nM VLR-Fc)”.

B3: the binding result is reported as “no binding (tested: 2 µM receptor ectodomain, 200 nM VLR-Fc)”.

The target of the next test is T2, recombinant low-density lipoprotein receptor ectodomain (UniProt P35951 22-790, limits assumed).
T2 construct: extracellular domain; Bought; also called rLDLR; LDLR
T2 sequence (P35951 22-790 limits assumed): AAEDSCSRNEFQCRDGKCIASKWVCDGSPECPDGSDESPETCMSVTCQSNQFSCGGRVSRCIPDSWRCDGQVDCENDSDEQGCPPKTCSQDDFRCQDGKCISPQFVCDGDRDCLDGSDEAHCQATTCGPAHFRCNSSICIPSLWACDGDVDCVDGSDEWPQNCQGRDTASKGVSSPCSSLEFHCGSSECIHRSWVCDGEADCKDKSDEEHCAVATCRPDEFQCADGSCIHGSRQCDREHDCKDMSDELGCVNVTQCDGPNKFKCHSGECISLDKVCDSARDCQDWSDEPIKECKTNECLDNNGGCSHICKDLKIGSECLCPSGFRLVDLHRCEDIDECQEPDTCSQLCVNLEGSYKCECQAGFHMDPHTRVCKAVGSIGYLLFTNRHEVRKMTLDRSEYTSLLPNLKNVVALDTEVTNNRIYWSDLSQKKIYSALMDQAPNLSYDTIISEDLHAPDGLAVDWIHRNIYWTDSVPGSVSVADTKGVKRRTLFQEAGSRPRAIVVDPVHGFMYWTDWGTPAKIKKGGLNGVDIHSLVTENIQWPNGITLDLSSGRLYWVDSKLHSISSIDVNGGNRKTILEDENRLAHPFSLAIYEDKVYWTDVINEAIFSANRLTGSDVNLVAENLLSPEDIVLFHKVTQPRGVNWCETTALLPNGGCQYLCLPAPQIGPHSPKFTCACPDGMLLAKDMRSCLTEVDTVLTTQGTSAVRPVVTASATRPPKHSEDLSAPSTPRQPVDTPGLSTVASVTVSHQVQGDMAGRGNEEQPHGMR
The description is as above. Here is the method: as §1
In the case of B1, the binding result was “no binding (tested: 2 µM receptor ectodomain, 200 nM VLR-Fc)”.

Take B2: the binding result was “no binding (tested: 2 µM receptor ectodomain, 200 nM VLR-Fc)”.

As to B3, the binding result is “no binding (tested: 2 µM receptor ectodomain, 200 nM VLR-Fc)”.

The target in another test is T3, recombinant insulin receptor ectodomain (UniProt P15208 28-946, limits assumed).
T3 construct: extracellular domain; Bought; The chain make-up (alpha/beta) is not described; also called rIR; IR
T3 sequence (P15208 28-946 limits assumed): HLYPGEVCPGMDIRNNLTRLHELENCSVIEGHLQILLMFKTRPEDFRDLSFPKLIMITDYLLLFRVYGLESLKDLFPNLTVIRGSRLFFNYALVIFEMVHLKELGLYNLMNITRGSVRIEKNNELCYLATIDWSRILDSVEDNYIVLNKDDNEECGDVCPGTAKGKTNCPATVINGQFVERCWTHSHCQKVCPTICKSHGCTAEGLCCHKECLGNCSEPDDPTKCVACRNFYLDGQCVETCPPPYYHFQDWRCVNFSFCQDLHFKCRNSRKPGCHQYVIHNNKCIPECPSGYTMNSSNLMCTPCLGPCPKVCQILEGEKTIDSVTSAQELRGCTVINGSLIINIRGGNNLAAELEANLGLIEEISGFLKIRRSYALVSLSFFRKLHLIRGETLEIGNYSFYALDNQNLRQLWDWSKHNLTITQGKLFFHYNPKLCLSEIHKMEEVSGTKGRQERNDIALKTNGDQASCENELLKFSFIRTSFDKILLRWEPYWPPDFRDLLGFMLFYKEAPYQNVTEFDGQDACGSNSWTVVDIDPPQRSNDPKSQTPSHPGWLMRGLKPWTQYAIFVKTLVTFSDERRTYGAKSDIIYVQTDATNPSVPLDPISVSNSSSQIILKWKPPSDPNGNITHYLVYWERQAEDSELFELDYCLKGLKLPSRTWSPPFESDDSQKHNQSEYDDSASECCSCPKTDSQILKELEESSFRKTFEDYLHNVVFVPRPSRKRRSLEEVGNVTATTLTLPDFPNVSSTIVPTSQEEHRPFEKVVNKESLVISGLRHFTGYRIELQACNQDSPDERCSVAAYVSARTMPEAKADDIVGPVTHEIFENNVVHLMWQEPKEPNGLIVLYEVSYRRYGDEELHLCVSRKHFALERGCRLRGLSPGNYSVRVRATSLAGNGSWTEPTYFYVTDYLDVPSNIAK
The description is as above. The procedure:
as §1
Take B1: the binding result was “no binding (tested: 2 µM receptor ectodomain, 200 nM VLR-Fc)”.

As to B2, the binding result is reported as “no binding (tested: 2 µM receptor ectodomain, 200 nM VLR-Fc)”.

B3: the binding result is “no binding (tested: 2 µM receptor ectodomain, 200 nM VLR-Fc)”.
